Data: patent publication US12679878B2, “CRF2 receptor agonists and their use in therapy” (SANOFI, priority 2020, dated 2026)
Values after ≈ are worked out from the molar mass of the structure shown. Where two headings read alike, the source gives them in different places. Starred links: 1 amine or outer side, 2 acyl side, 3 side chain; linkers in the order of their positions; H or OH if unused. Non-standard residues stand in square brackets, D forms with d. Residues, ends and D or L forms follow the SMILES beside them. Groups on a side chain read outwards from the residue. No end group written: not given here. *: point of attachment. C20 diacid = O=C(O)CCCCCCCCCCCCCCCCCCC(=O)*; C18 diacid = O=C(O)CCCCCCCCCCCCCCCCC(=O)*; γGlu = O=C(O)[C@H](CCC(=O)[*:2])N[*:1]; AEEA = NCCOCCOCC(=O)O; Aib = CC(C)(N)C(=O)O

T1: CRF1R receptor (Homo sapiens, UniProt P34998)
T1 construct: host or cells: CHO-K1 clone 2
T1 sequence (P34998 24-415): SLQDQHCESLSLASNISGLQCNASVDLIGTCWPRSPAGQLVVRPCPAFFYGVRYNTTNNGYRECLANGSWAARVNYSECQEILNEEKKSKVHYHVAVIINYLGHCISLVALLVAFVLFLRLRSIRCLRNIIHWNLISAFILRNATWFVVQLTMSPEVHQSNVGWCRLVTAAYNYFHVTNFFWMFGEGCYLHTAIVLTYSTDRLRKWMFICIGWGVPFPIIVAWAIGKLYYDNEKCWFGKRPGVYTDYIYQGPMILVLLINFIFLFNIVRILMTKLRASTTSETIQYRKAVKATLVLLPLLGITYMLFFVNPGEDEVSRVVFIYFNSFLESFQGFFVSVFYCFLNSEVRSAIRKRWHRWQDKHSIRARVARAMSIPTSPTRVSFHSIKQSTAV

T2: endogenous human CRF2 (Homo sapiens, UniProt Q13324)
T2 construct: endogenous in cells; host or cells: NCI-H82
T2 sequence (Q13324 1-411): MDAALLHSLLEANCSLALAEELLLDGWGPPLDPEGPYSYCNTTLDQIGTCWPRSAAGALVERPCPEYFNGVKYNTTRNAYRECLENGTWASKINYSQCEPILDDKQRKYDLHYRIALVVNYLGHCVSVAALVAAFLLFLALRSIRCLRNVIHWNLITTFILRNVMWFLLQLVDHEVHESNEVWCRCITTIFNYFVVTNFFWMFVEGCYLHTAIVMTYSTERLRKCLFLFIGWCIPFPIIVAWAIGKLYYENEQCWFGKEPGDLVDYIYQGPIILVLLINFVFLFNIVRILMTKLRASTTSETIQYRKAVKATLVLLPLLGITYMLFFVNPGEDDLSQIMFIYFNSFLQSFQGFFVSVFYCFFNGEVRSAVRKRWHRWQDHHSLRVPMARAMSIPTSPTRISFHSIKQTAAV

T3: human CRF2α receptor (Homo sapiens, UniProt Q13324)
T3 construct: expressed in transfected cells; host or cells: TeloHEAC
T3 sequence (Q13324 1-411): T2 sequence (Q13324 1-411)

T4: endogenous human CRF2 (NCI-H82 cells) (human, UniProt Q13324 20-411)
T4 sequence (looked up): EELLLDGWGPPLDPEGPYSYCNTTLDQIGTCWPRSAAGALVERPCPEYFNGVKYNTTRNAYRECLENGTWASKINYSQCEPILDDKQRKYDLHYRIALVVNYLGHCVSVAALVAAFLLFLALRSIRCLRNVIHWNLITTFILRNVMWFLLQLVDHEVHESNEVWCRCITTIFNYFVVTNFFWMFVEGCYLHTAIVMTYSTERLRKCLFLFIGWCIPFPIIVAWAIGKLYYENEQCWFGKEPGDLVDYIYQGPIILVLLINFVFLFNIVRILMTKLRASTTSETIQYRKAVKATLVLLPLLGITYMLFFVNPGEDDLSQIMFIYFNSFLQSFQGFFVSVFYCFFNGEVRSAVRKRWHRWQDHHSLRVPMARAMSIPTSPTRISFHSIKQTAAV

T5: anti-target CRF1R receptor (UniProt P34998 24-415, limits assumed)
T5 sequence (looked up): T1 sequence (P34998 24-415)

T6: recombinant human CRF2 (HEK cell membranes) (human, UniProt Q13324 1-411)
T6 construct: Whole receptor in membranes prepared from HEK cells; also called CRF2a (h); CRF2 receptor
T6 sequence (looked up): T2 sequence (Q13324 1-411)

B1: peptide of SEQ ID NO: 35 (peptide)
peptide: IVLSLDVPIKLK([AEEA-AEEA-γGlu-C18 diacid])KILLEQEKQKKQREQAETNKQILAQV-NH2
modifications: N-terminus assumed
SMILES: CC[C@H](C)[C@H](N)C(=O)N[C@H](C(=O)N[C@@H](CC(C)C)C(=O)N[C@@H](CO)C(=O)N[C@@H](CC(C)C)C(=O)N[C@@H](CC(=O)O)C(=O)N[C@H](C(=O)N1CCC[C@H]1C(=O)N[C@H](C(=O)N[C@@H](CCCCN)C(=O)N[C@@H](CC(C)C)C(=O)N[C@@H](CCCCNC(=O)COCCOCCNC(=O)COCCOCCNC(=O)CC[C@H](NC(=O)CCCCCCCCCCCCCCCCC(=O)O)C(=O)O)C(=O)N[C@@H](CCCCN)C(=O)N[C@H](C(=O)N[C@@H](CC(C)C)C(=O)N[C@@H](CC(C)C)C(=O)N[C@@H](CCC(=O)O)C(=O)N[C@@H](CCC(N)=O)C(=O)N[C@@H](CCC(=O)O)C(=O)N[C@@H](CCCCN)C(=O)N[C@@H](CCC(N)=O)C(=O)N[C@@H](CCCCN)C(=O)N[C@@H](CCCCN)C(=O)N[C@@H](CCC(N)=O)C(=O)N[C@@H](CCCNC(=N)N)C(=O)N[C@@H](CCC(=O)O)C(=O)N[C@@H](CCC(N)=O)C(=O)N[C@@H](C)C(=O)N[C@@H](CCC(=O)O)C(=O)N[C@H](C(=O)N[C@@H](CC(N)=O)C(=O)N[C@@H](CCCCN)C(=O)N[C@@H](CCC(N)=O)C(=O)N[C@H](C(=O)N[C@@H](CC(C)C)C(=O)N[C@@H](C)C(=O)N[C@@H](CCC(N)=O)C(=O)N[C@H](C(N)=O)C(C)C)[C@@H](C)CC)[C@@H](C)O)[C@@H](C)CC)[C@@H](C)CC)C(C)C)C(C)C

Columns and labels:
CRF1R receptor = molecular target: T1, CRF1R receptor; test: cAMP activity at anti-target CRF1R, CRF1R-overexpression CHO cell line (Example 9); type: cell-based; conditions: CRF1R-overexpression CHO cell line
Outline: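 cAMP accumulation was read by HTRF after 30 min at room temperature of compound treatment. Cells were cryopreserved CHO cells overexpressing CRF1R, plated at 2000/well in IBMX (2 mM)-containing HBSS/HEPES buffer with 0 or 0.1% HSA. Activity was normalized to 1000 nM UCN2 as 100%.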

endogenous human CRF2 = molecular target: T2, endogenous human CRF2; test: cAMP agonist effect in NCI-H82 cells expressing endogenous human CRF2 (Example 10); type: cell-based; conditions: cAMP HTRF, 5 min activation
Protocol: The agonist effect of the compounds was assessed in NCI-H82 cells expressing endogenous human CRF2.
NCI-H82 cells in suspension were plated in low-volume 384-well plates at a density of 30000 cells/well in 5 μl of test medium (RPMI+1 mM IBMX). The plates were briefly centrifuged at 800 rpm to allow the cell suspension to move to the bottom of the wells and then incubated for 2 hours at 37° C. in 5% CO2. 5 μl of test compounds at appropriate concentrations (10-11 to 3×10-7) diluted in test medium were then transferred in 384 wells plates. After 5 min of activation, the reaction was stopped by addition of HTRF revelation reagents with a multidrop dispenser. The two reagents were 5 μl/well of Anti-CAMP-cryptate diluted 20-fold in conjugate and lysis buffer and 5 μl/well of cAMP-D2 diluted 20-fold in conjugate and lysis buffer. After one-hour incubation at room temperature in the dark, the plates were read on a Clariostar apparatus.

rat CRF2R α receptor [1] = test: cAMP agonism at rat CRF2R α receptor in A7R5 rat aortic smooth muscle cells (Example 8); type: cell-based; conditions: cAMP HTRF, A7R5 rat aortic smooth muscle cell line, 0% HSA
Outline: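 Thawed cryopreserved A7R5 cells in HBSS/20 mM HEPES (0 or 0.1% HSA) with 2 mM IBMX, 2000 cells/well, were exposed to compound for 30 min at room temperature. cAMP was read by HTRF (665/620 nm ratio) after 1 h with lysis reagents. Activity was normalised to 1000 nM urocortin 2 as 100%, and EC50 was taken as the concentration giving 50% of maximal activation.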

human CRF2α receptor = molecular target: T3, human CRF2α receptor; test: cAMP agonism at human CRF2 α receptor in TeloHEAC cells (Example 7); type: cell-based; conditions: cAMP HTRF, TeloHEAC cells stably expressing human CRF2 α
Outline: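 Cryopreserved cells are thawed, washed and resuspended in IBMX-containing (2 mM) HEPES-buffered HBSS with or without 0.1% HSA. Compound incubation runs 30 min at room temperature with 2000 cells per well, then cAMP is measured by time-resolved FRET. Potency is expressed as EC50, efficacy relative to urocortin 2 at 1000 nM.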

[2] = Solubility in buffer systems by UPLC-UV (Example 13); type: physicochemical
Outline: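 The supernatant was diluted 1:10 and quantified by UPLC-UV peak area against a reference standard curve, correcting for sequence-based extinction coefficients.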

[3] = molecular target: T4, endogenous human CRF2 (NCI-H82 cells); test: cell-based or functional assay
[4] = molecular target: T5, anti-target CRF1R receptor; test: cell-based or functional assay
[5] = molecular target: T6, recombinant human CRF2 (HEK cell …); test: Hill coefficient of the competition curve against [125]sauvagine, HEK membranes with recombinant human CRF2
Protocol: (§1) HEK cells expressing recombinant human CRF2 were used as a source of receptor for membrane preparation.
(§2) IC50 values (concentration causing a half-maximal inhibition of control specific binding) and Hill coefficients (nH) were determined by non-linear regression analysis of the competition curves generated with mean replicate values using Hill equation curve fitting. The inhibition constants (Ki) were calculated using the Cheng Prusoff equation [Ki=IC50/(1+L/KD) where L is the concentration of radioligand in the assay, and KD is the affinity of the radioligand for the receptor). A Scatchard plot was used to determine the KD.

[6] = molecular target: T6, recombinant human CRF2 (HEK cell …); test: radioligand competition against [125]sauvagine (0.1 nM), HEK membranes with recombinant human CRF2; Cheng Prusoff
Protocol: as §1, §2

rat CRF2R α receptor [7] = molecular target: rat CRF2R α receptor (rat, UniProt P47866 20-411); test: cell-based or functional assay

Molecule | EC50 (CRF1R receptor; 0% HSA) [nM] | Emax (CRF1R receptor; read-out: Emax (%)) [%] | EC50 (endogenous human CRF2) [nM] | EC50 (rat CRF2R α receptor [1]) [nM] | EC50 (human CRF2α receptor; 0% HSA, read-out: EC50 [nM], 0% HSA) [nM] | EC50 (human CRF2α receptor; 0.1% HSA, read-out: EC50 [nM], 0.1% HSA) [nM] | solubility at 1 h ([2]; pH 4.5, Solubility in Buffer B [mg/ml]) [mg/mL] | solubility at 1 h ([2]; pH 7.4, Solubility in Buffer C [mg/ml]) [mg/mL] | EC50 [nM] (cAMP, NCI-H82 cells) [3] | EC50[nM] 0% HSA (cAMP, CRF1R-overexpression CHO cells) [4] [nM] | Emax (%) (cAMP, CRF1R-overexpression CHO cells) [4] | nH [5] | Ki [6] [nM] | EC50 [nM], 0% HSA (cAMP, A7R5 cells) (rat CRF2R α receptor [7]) [nM]
CC[C@H](C)[C@H](N)C(=O)N[C@H](C(=O)N[C@@H](CC(C)C)C(=O)N[C@@H](CO)C(=O)N[C@@H](CC(C)C)C(=O)N[C@@H](CC(=O)O)C(=O)N[C@H](C(=O)N1CCC[C@H]1C(=O)N[C@H](C(=O)N[C@@H](CCCCN)C(=O)N[C@@H](CC(C)C)C(=O)N[C@@H](CCCCNC(=O)COCCOCCNC(=O)COCCOCCNC(=O)CC[C@H](NC(=O)CCCCCCCCCCCCCCCCCCC(=O)O)C(=O)O)C(=O)N[C@@H](CCC(N)=O)C(=O)N[C@H](C(=O)N[C@@H](CC(C)C)C(=O)N[C@@H](CC(C)C)C(=O)N[C@@H](CCC(=O)O)C(=O)N[C@@H](CCC(N)=O)C(=O)N[C@@H](CCC(=O)O)C(=O)N[C@@H](CCCCN)C(=O)N[C@@H](CCC(N)=O)C(=O)N[C@@H](CCCCN)C(=O)NC(C)(C)C(=O)N[C@@H](CCC(N)=O)C(=O)N[C@@H](CCCNC(=N)N)C(=O)N[C@@H](CCC(=O)O)C(=O)N[C@@H](CCC(N)=O)C(=O)N[C@@H](C)C(=O)N[C@@H](CCC(=O)O)C(=O)N[C@H](C(=O)N[C@@H](CC(N)=O)C(=O)N[C@@H](CCCCN)C(=O)N[C@@H](CCC(N)=O)C(=O)N[C@H](C(=O)N[C@@H](CC(C)C)C(=O)N[C@@H](C)C(=O)N[C@@H](CCC(N)=O)C(=O)N[C@H](C(N)=O)C(C)C)[C@@H](C)CC)[C@@H](C)O)[C@@H](C)CC)[C@@H](C)CC)C(C)C)C(C)C [compound 81] (H-IVLSLDVPIKLK([AEEA-AEEA-γGlu-C20 diacid])QILLEQEKQK[Aib]QREQAETNKQILAQV-NH2) | > 1000 | 23.3 | 110 | 0.94 | 0.14 | 18.5 | 20.4 (≈ 3.97 mM) | > 9.6 | – | – | – | – | – | –
B1 | – | – | – | – | – | – | – | – | 23 | > 1000 | 1.77 | 1.7 | 7.9 | 0.81
FTLSLDVPTKIK([AEEA-AEEA-γGlu-C20 diacid])QILLKQQKQKKERQQAEKNKQLLEQI-NH2 [peptide of SEQ ID NO: 59] | – | – | – | – | – | – | – | – | 6.8 | > 1000 | 11.1 | 0.6 | 7.2 | 0.34
